Molecular target: T1, Human CD1d/β2M (human, UniProt P15813 20-301; P61769 21-119)
T1 construct: also called hCD1d; recombinant human CD1d
Test: SPR, transfection supernatant

| Binder | Kd [nM] |
| --- | --- |
| 401.11.118 (antibody, name in Kabat numbering, V domains shown) VH: QVQLVGSGGGLVKPGRSLRLSCAASGFTFDDYAMHWVRQAPGKGLEWVATIIWNSAIIGYADSVKGRFIVSRDNAKNSLYLQMNSLRAEDMALYYCAKDMCSSSGCPDSYFDSWGQGTLVTVSS VL: DIQMTQSPSSVSASVGDRVTITCRASQHISSWLAWYQQKPGKAPNLLIYAASSLQSGVSSRFSGSGSGTDFTLTISSLQPEDFATYYCQQANRFPLTFGGGTKLEIKR | < 0.01 |
| 401.11.119 (antibody, name in Kabat numbering, V domains shown) VH: QVQLVGSGGGLVKPGRSLRLSCAASGFTFDDYAMHWVRQAPGKGLEWVATIIWNSAIIGYADSVKGRFIVSRDNAKNSLYLQMNSLRAEDMALYYCAKDMCSSSGCPDAYFDSWGQGTLVTVSS VL: DIQMTQSPSSVSASVGDRVTITCRASQHISSWLAWYQQKPGKAPNLLIYAASSLQSGVSSRFSGSGSGTDFTLTISSLQPEDFATYYCQQANRFPLTFGGGTKLEIKR | 0.877 |
| 401.11.122 (antibody, name in Kabat numbering, V domains shown) VH: QVQLVGSGGGLVKPGRSLRLSCAASGFTFDDYAMHWVRQAPGKGLEWVATIIWNSAIIGYADSVKGRFIVSRDNAKNSLYLQMNSLRAEDMALYYCAKDMCSSSGCPDKYFDSWGQGTLVTVSS VL: DIQMTQSPSSVSASVGDRVTITCRASQHISSWLAWYQQKPGKAPNLLIYAASSLQSGVSSRFSGSGSGTDFTLTISSLQPEDFATYYCQQANRFPLTFGGGTKLEIKR | 0.13 |
| 401.11.123 (antibody, name in Kabat numbering, V domains shown) VH: QVQLVGSGGGLVKPGRSLRLSCAASGFTFDDYAMHWVRQAPGKGLEWVATIIWNSAIIGYADSVKGRFIVSRDNAKNSLYLQMNSLRAEDMALYYCAKDMCSSSGCPDRYFDSWGQGTLVTVSS VL: DIQMTQSPSSVSASVGDRVTITCRASQHISSWLAWYQQKPGKAPNLLIYAASSLQSGVSSRFSGSGSGTDFTLTISSLQPEDFATYYCQQANRFPLTFGGGTKLEIKR | 0.239 |
| 401.11.124 (antibody, name in Kabat numbering, V domains shown) VH: QVQLVGSGGGLVKPGRSLRLSCAASGFTFDDYAMHWVRQAPGKGLEWVATIIWNSAIIGYADSVKGRFIVSRDNAKNSLYLQMNSLRAEDMALYYCAKDMCSSSGCPDGWFDSWGQGTLVTVSS VL: DIQMTQSPSSVSASVGDRVTITCRASQHISSWLAWYQQKPGKAPNLLIYAASSLQSGVSSRFSGSGSGTDFTLTISSLQPEDFATYYCQQANRFPLTFGGGTKLEIKR | 1.38 |
| 401.11.125 (antibody, name in Kabat numbering, V domains shown) VH: QVQLVGSGGGLVKPGRSLRLSCAASGFTFDDYAMHWVRQAPGKGLEWVATIIWNSAIIGYADSVKGRFIVSRDNAKNSLYLQMNSLRAEDMALYYCAKDMCSSSGCPDGFFDSWGQGTLVTVSS VL: DIQMTQSPSSVSASVGDRVTITCRASQHISSWLAWYQQKPGKAPNLLIYAASSLQSGVSSRFSGSGSGTDFTLTISSLQPEDFATYYCQQANRFPLTFGGGTKLEIKR | 0.535 |
| 401.11.126 (antibody, name in Kabat numbering, V domains shown) VH: QVQLVGSGGGLVKPGRSLRLSCAASGFTFDDYAMHWVRQAPGKGLEWVATIIWNSAIIGYADSVKGRFIVSRDNAKNSLYLQMNSLRAEDMALYYCAKDMCSSSGCPDGSFDSWGQGTLVTVSS VL: DIQMTQSPSSVSASVGDRVTITCRASQHISSWLAWYQQKPGKAPNLLIYAASSLQSGVSSRFSGSGSGTDFTLTISSLQPEDFATYYCQQANRFPLTFGGGTKLEIKR | 0.0313 |
| 401.11.127 (antibody, name in Kabat numbering, V domains shown) VH: QVQLVGSGGGLVKPGRSLRLSCAASGFTFDDYAMHWVRQAPGKGLEWVATIIWNSAIIGYADSVKGRFIVSRDNAKNSLYLQMNSLRAEDMALYYCAKDMCSSSGCPDGQFDSWGQGTLVTVSS VL: DIQMTQSPSSVSASVGDRVTITCRASQHISSWLAWYQQKPGKAPNLLIYAASSLQSGVSSRFSGSGSGTDFTLTISSLQPEDFATYYCQQANRFPLTFGGGTKLEIKR | 2.7 |
| 401.11.131 (antibody, name in Kabat numbering, V domains shown) VH: QVQLVGSGGGLVKPGRSLRLSCAASGFTFDDYAMHWVRQAPGKGLEWVATIIWNSAIIGYADSVKGRFIVSRDNAKNSLYLQMNSLRAEDMALYYCAKDMCSSSGCPDGYFDDWGQGTLVTVSS VL: DIQMTQSPSSVSASVGDRVTITCRASQHISSWLAWYQQKPGKAPNLLIYAASSLQSGVSSRFSGSGSGTDFTLTISSLQPEDFATYYCQQANRFPLTFGGGTKLEIKR | 0.2 |
| 401.11.132 (antibody, name in Kabat numbering, V domains shown) VH: QVQLVGSGGGLVKPGRSLRLSCAASGFTFDDYAMHWVRQAPGKGLEWVATIIWNSAIIGYADSVKGRFIVSRDNAKNSLYLQMNSLRAEDMALYYCAKDMCSSSGCPDGYFDTWGQGTLVTVSS VL: DIQMTQSPSSVSASVGDRVTITCRASQHISSWLAWYQQKPGKAPNLLIYAASSLQSGVSSRFSGSGSGTDFTLTISSLQPEDFATYYCQQANRFPLTFGGGTKLEIKR | 0.569 |
| 401.11.133 (antibody, name in Kabat numbering, V domains shown) VH: QVQLVGSGGGLVKPGRSLRLSCAASGFTFDDYAMHWVRQAPGKGLEWVATIIWNSAIIGYADSVKGRFIVSRDNAKNSLYLQMNSLRAEDMALYYCAKDMCSSSGCPDGYFDWWGQGTLVTVSS VL: DIQMTQSPSSVSASVGDRVTITCRASQHISSWLAWYQQKPGKAPNLLIYAASSLQSGVSSRFSGSGSGTDFTLTISSLQPEDFATYYCQQANRFPLTFGGGTKLEIKR | 0.167 |
| 401.11.134 (antibody, name in Kabat numbering, V domains shown) VH: QVQLVGSGGGLVKPGRSLRLSCAASGFTFDDYAMHWVRQAPGKGLEWVATIIWNSAIIGYADSVKGRFIVSRDNAKNSLYLQMNSLRAEDMALYYCAKDMCSSSGCPDGYFDLWGQGTLVTVSS VL: DIQMTQSPSSVSASVGDRVTITCRASQHISSWLAWYQQKPGKAPNLLIYAASSLQSGVSSRFSGSGSGTDFTLTISSLQPEDFATYYCQQANRFPLTFGGGTKLEIKR | 0.532 |
| 401.11.135 (antibody, name in Kabat numbering, V domains shown) VH: QVQLVGSGGGLVKPGRSLRLSCAASGFTFDDYAMHWVRQAPGKGLEWVATIIWNSAIIGYADSVKGRFIVSRDNAKNSLYLQMNSLRAEDMALYYCAKDMCSSSGCPDGYFDVWGQGTLVTVSS VL: DIQMTQSPSSVSASVGDRVTITCRASQHISSWLAWYQQKPGKAPNLLIYAASSLQSGVSSRFSGSGSGTDFTLTISSLQPEDFATYYCQQANRFPLTFGGGTKLEIKR | 0.421 |
| 401.11.136 (antibody, name in Kabat numbering, V domains shown) VH: QVQLVGSGGGLVKPGRSLRLSCAASGFTFDDYAMHWVRQAPGKGLEWVATIIWNSAIIGYADSVKGRFIVSRDNAKNSLYLQMNSLRAEDMALYYCAKDMCSSSGCPDGYFDKWGQGTLVTVSS VL: DIQMTQSPSSVSASVGDRVTITCRASQHISSWLAWYQQKPGKAPNLLIYAASSLQSGVSSRFSGSGSGTDFTLTISSLQPEDFATYYCQQANRFPLTFGGGTKLEIKR | < 0.01 |
| 401.11.137 (antibody, name in Kabat numbering, V domains shown) VH: QVQLVGSGGGLVKPGRSLRLSCAASGFTFDDYAMHWVRQAPGKGLEWVATIIWNSAIIGYADSVKGRFIVSRDNAKNSLYLQMNSLRAEDMALYYCAKDMCSSSGCPDGYFDRWGQGTLVTVSS VL: DIQMTQSPSSVSASVGDRVTITCRASQHISSWLAWYQQKPGKAPNLLIYAASSLQSGVSSRFSGSGSGTDFTLTISSLQPEDFATYYCQQANRFPLTFGGGTKLEIKR | 0.938 |
| 401.11.138 (antibody, name in Kabat numbering, V domains shown) VH: QVQLVGSGGGLVKPGRSLRLSCAASGFTFDDYAMHWVRQAPGKGLEWVATIIWNSAIIGYADSVKGRFIVSRDNAKNSLYLQMNSLRAEDMALYYCAKDMCSSSGCPDGYFDYWGQGTLVTVSS VL: DIQMTQSPSSVSASVGDRVTITCRASQHISSWLAWYQQKPGKAPNLLIYAASSLQSGVSSRFSGSGSGTDFTLTISSLQPEDFATYYCQQANRFPLTFGGGTKLEIKR | 0.171 |
